{
  "source": "patent US5723594",
  "about": "“High affinity PDGF nucleic acid ligands” (NeXstar Pharmaceuticals, Inc.)",
  "binders": {"B1": {"name": "20t (ssDNA)", "DNA": "TGGGAGGGCGCGTTCTTCGTGGTTACTTTTAGTCCCGT", "modifications": "3'-3' linked inverted T at 3' end"}, "B2": {"name": "41t (ssDNA)", "DNA": "TACTCAGGGCACTGCAAGCAATTGTGGTCCCAATGGGCTGAGTAT", "modifications": "3'-3' linked inverted T at 3' end"}, "B3": {"name": "36t (ssDNA)", "DNA": "CACAGGCTACGGCACGTAGAGCATCACCATGATCCTGTGT", "modifications": "3'-3' linked inverted T at 3' end"}},
  "details_in_all_cases": "tags: R&D Systems, carrier-free, E. coli produced; chain copies: 2 (homodimer, inferred); label: 5'-32P; three-way helix junction",
  "key": {"[1]": {"target": "T1, PDGF-BB (Homo sapiens, UniProt P01127 P01127:82-190)", "T1 sequence (P01127 82-190, one chain of several)": "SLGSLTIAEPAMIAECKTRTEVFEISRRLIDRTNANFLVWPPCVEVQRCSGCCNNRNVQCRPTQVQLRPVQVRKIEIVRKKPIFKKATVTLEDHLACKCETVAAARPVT", "test": "cell_activity; slightly less efficient than 36t; thymidine incorporation", "method": "(§1) The incorporation of [^3H]thymidine into PAE cells expressing PDGF β-receptor in response to 20 ng/ml of PDGF-BB or 10% fetal calf serum and in the presence of different concentrations of DNA ligands was performed as described (Mori et al., (1991) *J. Biol. Chem.* 266, 21158–21164). After incubation for 24 h at 37° C., ^3H-radioactivity incorporated into DNA was determined using a β-counter.\n(§2) We furthermore investigated the ability of the DNA ligands to inhibit the mitogenic effects of PDGF-BB on PAE cells expressing PDGF β-receptors. […] The control ligand T39 had no effect. Moreover, none of the ligands inhibited the stimulatory effects of fetal calf serum on [^3H]thymidine incorporation in these cells, showing that the inhibitory effects are specific for PDGF."}, "[2]": {"target": "T1, PDGF-BB", "test": "cell_activity; slightly more efficient than 36t; thymidine incorporation", "method": "as §1, §2"}, "[3]": {"target": "T1, PDGF-BB", "test": "cell_activity; inhibition of thymidine incorporation in PAE cells expressing PDGF beta-receptor, 20 ng/ml PDGF-BB", "method": "as §1, §2"}},
  "data": [
    {"binder": "B1", "values": [
      {"measurement": "IC50", "setting": "[1]", "result": "> 2.5", "unit": "nM"}
    ]},
    {"binder": "B2", "values": [
      {"measurement": "IC50", "setting": "[2]", "result": "< 2.5", "unit": "nM"}
    ]},
    {"binder": "B3", "values": [
      {"measurement": "IC50", "setting": "[3]", "result": 2.5, "unit": "nM"}
    ]}
  ]
}
